One substance from patent JP2012050437A can be followed below.

The assay deals with soluble Aβ1-42 (125I-labelled) (human) (UniProt P05067). The assay can be described thus: capture radioimmunoassay, 50,000 CPM 125I-Aβ1-42, antibody at 10 µg/ml.

“murine monoclonal antibody 10D5 (isotype IgG1)”: the percent of radioactive counts bound at 10 µg/ml was determined as 2%.
